Literature values in paper PMC10609526.

Biological target: DmsA Tat signal peptide (Escherichia coli) (UniProt P18775)
Chain of UniProt P18775 (P18775 1-45): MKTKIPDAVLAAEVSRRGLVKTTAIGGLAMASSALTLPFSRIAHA

For DmsD (from UniProt P69853), the Kd is listed as 220 nM.
